US7981997B2, “Growth factor which acts through ErbB-4 RTK” (Yeda Research And Development Co., priority 2000, dated 2011)

What was measured:
Type in all cases: cell-based
[1] = tested on: D4 cells (32D expressing ErbB-4); assay: Long-term cell survival assay in the absence of IL-3 (MTT); conditions: ligand 100 ng/ml, MTT daily
Description: FIG. 3b show survival effect of NRG-4 on ErbB-expressing derivatives of 32D cells. The indicated derivatives of 32D cells were incubated for various time intervals in the absence of IL-3. […] For control, cells were incubated with medium conditioned by IL-3-producing cells (open triangles), or with no factor (open circles). The extent of cell proliferation was determined daily by using the calorimetric MTT assay. The data presented are the mean±S.D. of 4 determinations. Note that co-expression of ErbB-1 and ErbB-2 (D12 cells) enabled cell survival in the absence of IL-3. The experiment was repeated twice with similar results.
The establishment of a series of interleukin 3 (IL-3)-dependent 32D myeloid cells expressing all combinations of ErbB proteins has been described (Alimandi et al., 1997; Pinkas-Kramarski et al., 1996; Shelly et al., 1998). Cells were maintained in RPMI medium with 10% fetal bovine serum (FBS) and dilute IL3-containing conditioned medium. […] Cell survival was determined 24 hours later, or after the indicated time intervals, by MTT assay, as previously described (Mosman, 1983). MTT (0.05 mg/ml) was incubated with the analyzed cells for 2 hours at 37 C. Living cells can transform the tetrazolium ring into dark blue formazan crystals, that can be quantified by reading the optical density at 540-630 nm after lysis of the cells with acidic isopropanol. […]

[2] = tested on: D13 cells; assay: Tyrosine phosphorylation and MAPK activation, immunoblotting; conditions: doses as high as 1 μg/ml
Description: (§1) For receptor activation studies, derivatives of the 32D cell line were resuspended in phosphate-buffered solution (PBS) and incubated at 22 C for 15 minutes before adding growth factors and incubating for five minutes at 37 C. Cells were then pelleted and lysed in ice cold solubilization buffer [50 mM Tris-HCl pH 7.5, 150 mM NaCl, 1% Nonidet-P40, 0.5% Na-deoxycholate, 0.1% sodium dodecyl sulfate (SDS), 1.5 mM EDTA, 1.5 mM MgCl2, 2 mM Na-orthovanadate, 1 mM phenylmethylsulfonyl fluoride (PMSF), 10 µg/ml aprotinin and 10 µg/ml leupeptin] and left on ice for 15 minutes. The whole cell extract was then cleared by centrifugation (12,000×g for 10 minutes at 4 C), immediately boiled in reducing gel sample buffer, and resolved by 10% SDS PAGE before being transferred onto nitrocellulose. Filters were blocked in TBST buffer (0.02 M Tris-HCl pH 7.5, 0.15 M NaCl, 0.05% Tween-20) containing 1% milk for 40 minutes at 22 C, blotted with primary antibodies in TBST overnight at 4 C, followed by conjugation with a secondary antibody linked to horseradish peroxidase and subsequent detection by chemiluminescence (Amersham Corp.).
(§2) Evidently, NRG-4 binds to ErbB-4 and mediates cell proliferation through activation of this receptor. Because other ErbB ligands stimulate cell growth via tyrosine phosphorylation of their respective receptors and activation of the intervening mitogen-activated protein kinase (MAPK) cascade, these two signaling steps were tested in NRG-4-responsive myeloid cells expressing ErbB-4 (D4 and D24 cell lines). Cells were stimulated with 100 ng/ml of activating ligand for five minutes, followed by lysis and analysis by immunoblotting.

[3] = tested on: D3 cells; assay: as above; conditions: doses as high as 1 μg/ml
Description: as §1, §2

[4] = tested on: D23 cells; assay: as above; conditions: doses as high as 1 μg/ml
Description: as §1, §2

[5] = tested on: D2 cells; assay: as above; conditions: doses as high as 1 μg/ml
Description: as §1, §2

[6] = tested on: D12 cells; assay: as above; conditions: doses as high as 1 μg/ml
Description: as §1, §2

[7] = tested on: D1 cells; assay: as above; conditions: doses as high as 1 μg/ml
Description: as §1, §2

B1: NRG-4: synthetic refolded mouse EGF-like domain of NRG-4 (residues 4 to 50, SEQ ID NO:2) (peptide, listed as Mus musculus)
chain: MPTDHEQPCGPRHRSFCLNGGICYVIPTIPSPFCRCIENYTGARCEEVFLPSSSIPSESNLSAAFVVLAVLLTLTIAALCFLCRKGHLQRASSVQCEISLVETNNTRTRHSHREH
stimulated the survival: survival of D4 cells in the absence of IL-3 [1]
did not stimulate: stimulation of D13 cells [2] | stimulation of D3 cells [3] | stimulation of D23 cells [4] | stimulation of D2 cells [5] | stimulation of D12 cells [6] | stimulation of D1 cells [7]
